This passage reports IC50 results from PMC2194124 (The Journal of Experimental Medicine, 2003).

This assay has as its target Isolated Mac-1 (αMβ2, CD11b/CD18) (UniProt P11215 17-1152; P05107 23-769). The assay can be described thus: ELISA.

Usually IC50 stands for the concentration that inhibits the measured activity by half. High values mean lower potency, low ones higher potency.

B1: Recombinant soluble mouse RAGE (receptor)
chain: GQNITARIGEPLVLSCKGAPKKPPQQLEWKLNTGRTEAWKVLSPQGGPWDSVARILPNGSLLLPATGIVDEGTFRCRATNRRGKEVKSNYRVRVYQIPGKPEIVDPASELTASVPNKVGTCVSEGSYPAGTLSWHLDGKLLIPDGKETLVKEETRRHPETGLFTLRSELTVIPTQGGTHPTFSCSFSLGLPRRRPLNTAPIQLRVREPGPPEGIQLLVEPEGGIVAPGGTVTLTCAISAQPPPQVHWIKDGAPLPLAPSPVLLLPEVGHEDEGTYSCVATHPSHGPQESPPVSIRVTETGDEGPAEGSVGESGLGTLA
Take B1: the IC50 was roughly 175 nM.
